Results published in patent publication US20190170753A1 (ICAHN SCHOOL OF MEDICINE AT MOUNT SINAI, published 2019).

Assays:
Assay in all cases: peptide EIA, 2 ug/mL IgG;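 note: purified mouse IgG binding to individually well-coated synthetic peptides, detected with peroxidase anti-mouse IgG Fc and o-phenylenediamine, IgG incubated at least 1 h at room temperature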
[1] = target: T1, HCV core peptide 9 (hepatitis C virus, N-terminal biotin; C-terminal amide)
T1 construct: range 17-31
Protocol: (§1) The coated plates were kept dry in a sealed foil pouch and stored at <10 degrees C. until ready for use. A peptide coated plate for each test antibody was blocked using 3% BSA in PBS with 0.5% Tween 20. The blocked plates were washed with distilled water and a 2 ug/mL solution of purified IgG from each test sample diluted in BSA block solution was added to each peptide coated well of the blocked plate and allowed to incubate at room temperature for at least one hour. Following incubation the plates were washed with distilled water. A 200 ng/mL solution of peroxidase labeled F(ab′)2 fragment goat anti-mouse IgG Fc fragment specific (Jackson Immunoresearch) in BSA block solution was added to all wells and incubated at room temperature for 30 minutes. The plates were washed with distilled water and o-phenylenediamine substrate was used as the chromagen to generate signal. Plates were read at 492 nm and the results were analyzed.

[2] = target: T2, HCV core peptide 11 (hepatitis C virus, N-terminal biotin; C-terminal amide)
T2 construct: range 21-35
Protocol: as §1

[3] = target: T3, HCV core peptide 3 (hepatitis C virus, N-terminal biotin; C-terminal amide)
T3 construct: range 5-19
Protocol: as §1

[4] = target: HCV core peptide 59 (hepatitis C virus, N-terminal biotin; C-terminal amide)
Protocol: as §1

[5] = target: T4, HCV core peptide 22 (hepatitis C virus, N-terminal biotin; C-terminal amide)
T4 construct: range 43-57
Protocol: as §1

[6] = target: T5, HCV core peptide 21 (hepatitis C virus, N-terminal biotin; C-terminal amide)
T5 construct: range 41-55
Protocol: as §1

[7] = target: T6, HCV core peptide 34 (hepatitis C virus, N-terminal biotin; C-terminal amide)
T6 construct: range 67-81
Protocol: as §1

[8] = target: T7, HCV core peptide 5 (hepatitis C virus, N-terminal biotin; C-terminal amide)
T7 construct: range 9-23
Protocol: as §1

[9] = target: T8, HCV core peptide 33 (hepatitis C virus, N-terminal biotin; C-terminal amide)
T8 construct: range 65-79
Protocol: as §1

[10] = target: T9, HCV core peptide 51 (hepatitis C virus, HELM PEPTIDE1{[O=C1N[C@H]2[C@H](CS[C@H]2CCCCC(=O)[*:2])N1].S.G.S.G.R.G.S.R.P.S.W.G.P.T.D.P.R.R.R.[am]}$$$$V2.0; SMILES …)
T9 peptide: SGSGRGSRPSWGPTDPRRR
Protocol: as §1

[11] = target: HCV core peptide 74 (hepatitis C virus, N-terminal biotin; C-terminal amide)
Protocol: as §1

[12] = target: T10, HCV core peptide 36 (hepatitis C virus, N-terminal biotin; C-terminal amide)
T10 construct: range 71-85
Protocol: as §1

[13] = target: T11, HCV core peptide 49 (hepatitis C virus, HELM PEPTIDE1{[O=C1N[C@H]2[C@H](CS[C@H]2CCCCC(=O)[*:2])N1].S.G.S.G.L.L.S.P.R.G.S.R.P.S.W.G.P.T.D.[am]}$$$$V2.0; SMILES …)
T11 peptide: SGSGLLSPRGSRPSWGPTD
Protocol: as §1

[14] = target: T12, HCV core peptide 50 (hepatitis C virus, HELM PEPTIDE1{[O=C1N[C@H]2[C@H](CS[C@H]2CCCCC(=O)[*:2])N1].S.G.S.G.S.P.R.G.S.R.P.S.W.G.P.T.D.P.R.[am]}$$$$V2.0; SMILES …)
T12 construct: also called aa 99-113
T12 peptide: SGSGSPRGSRPSWGPTDPR
Protocol: as §1

[15] = target: T13, HCV core peptide 10 (hepatitis C virus, N-terminal biotin; C-terminal amide)
T13 construct: range 19-33
Protocol: as §1

[16] = target: T14, HCV core peptide 18 (hepatitis C virus, N-terminal biotin; C-terminal amide)
T14 construct: range 35-49
Protocol: as §1

[17] = target: HCV core peptide 44 (hepatitis C virus, N-terminal biotin; C-terminal amide)
Protocol: as §1

[18] = target: T15, HCV core peptide 72 (hepatitis C virus, N-terminal biotin; C-terminal amide)
T15 construct: range 143-157
Protocol: as §1

[19] = target: T16, HCV core peptide 54 (hepatitis C virus, HELM PEPTIDE1{[O=C1N[C@H]2[C@H](CS[C@H]2CCCCC(=O)[*:2])N1].S.G.S.G.W.G.P.T.D.P.R.R.R.S.R.N.L.G.K.[am]}$$$$V2.0; SMILES …)
T16 peptide: SGSGWGPTDPRRRSRNLGK
Protocol: as §1

[20] = target: T17, HCV core peptide 52 (hepatitis C virus, HELM PEPTIDE1{[O=C1N[C@H]2[C@H](CS[C@H]2CCCCC(=O)[*:2])N1].S.G.S.G.S.R.P.S.W.G.P.T.D.P.R.R.R.S.R.[am]}$$$$V2.0; SMILES …)
T17 peptide: SGSGSRPSWGPTDPRRRSR
Protocol: as §1

[21] = target: HCV core peptide 87 (hepatitis C virus, N-terminal biotin; C-terminal amide)
Protocol: as §1

[22] = target: T18, HCV core peptide 6 (hepatitis C virus, N-terminal biotin; C-terminal amide)
T18 construct: range 11-25
Protocol: as §1

[23] = target: T19, HCV core peptide 28 (hepatitis C virus, N-terminal biotin; C-terminal amide)
T19 construct: range 55-69
Protocol: as §1

[24] = target: HCV core peptide 45 (hepatitis C virus, N-terminal biotin; C-terminal amide)
Protocol: as §1

[25] = target: T20, HCV core peptide 53 (hepatitis C virus, HELM PEPTIDE1{[O=C1N[C@H]2[C@H](CS[C@H]2CCCCC(=O)[*:2])N1].S.G.S.G.P.S.W.G.P.T.D.P.R.R.R.S.R.N.L.[am]}$$$$V2.0; SMILES …)
T20 peptide: SGSGPSWGPTDPRRRSRNL
Protocol: as §1

[26] = target: T21, HCV core peptide 2 (hepatitis C virus, N-terminal biotin; C-terminal amide)
T21 construct: range 3-17
Protocol: as §1

[27] = target: HCV core peptide 78 (hepatitis C virus, N-terminal biotin; C-terminal amide)
Protocol: as §1

[28] = target: HCV core peptide 66 (hepatitis C virus, N-terminal biotin; C-terminal amide)
Protocol: as §1

B1: Neo4 mouse monoclonal antibody (antibody, V domains shown)
VH: QIQLKESGPAVIKPSQSLSLTCIVSGFSITSSVYCWQWIRQPPGKGLEWMGRICYDGSVDYSPSITSRGTISRDTSLNKVFFQLSSVTNEDTAMYYCSRENHIDYYDTTYPSFDVWGAGTTVTVSS
VL: DIVLTQSPASLIVSLGQRATISCRASKSVNEYGYTYMHWYQQKPGLPPKLLIYLASNLDSGVPARFSGSGSGTDFTLNIHPVEEEDAATYYCQHSRELPYTFGGGTKLEIKR
notes: Mouse hybridoma antibody, isotype IgG1, purified with Protein G; also called HCV Neo4
[1]
  OD (A492 nm): 0.05 OD
[2]
  OD (A492 nm): 0.05 OD
[3]
  OD (A492 nm): 0.05 OD
[4]
  OD (A492 nm): 0.05 OD
[5]
  OD (A492 nm): 0.07 OD
[6]
  OD (A492 nm): 0.05 OD
[7]
  OD (A492 nm): 0.04 OD
[8]
  OD (A492 nm): 0.05 OD
[9]
  OD (A492 nm): 0.05 OD
[10]
  OD (A492 nm): 0.96 OD
[11]
  OD (A492 nm): 0.05 OD
[12]
  OD (A492 nm): 0.05 OD
[13]
  OD (A492 nm): 0.05 OD
[14]
  OD (A492 nm): 1.03 OD
[15]
  OD (A492 nm): 0.05 OD
[16]
  OD (A492 nm): 0.05 OD
[17]
  OD (A492 nm): 0.05 OD
[18]
  OD (A492 nm): 0.04 OD
[19]
  OD (A492 nm): 1.01 OD
[20]
  OD (A492 nm): 0.93 OD
[21]
  OD (A492 nm): 0.05 OD
[22]
  OD (A492 nm): 0.06 OD
[23]
  OD (A492 nm): 0.04 OD
[24]
  OD (A492 nm): 0.04 OD
[25]
  OD (A492 nm): 0.96 OD
[26]
  OD (A492 nm): 0.06 OD
[27]
  OD (A492 nm): 0.06 OD
[28]
  OD (A492 nm): 0.05 OD
